Patent US9845340B2, “Peptides that specifically bind HGF receptor (cMet) and uses thereof” (Dyax Corp., priority 2003, dated 2017)

How the values were obtained:
[1] = target: T1, 3T3 cells that over-express human cMet (Homo sapiens, UniProt P08581); assay: Whole cell ELISA of peptide-displaying phage; type: cell-based; details: phage isolate; 3T3 cells expressing human cMet vs. non-expressing 3T3 cells
T1 construct: expressed in transfected cells; host or cells: 3T3 cells
How it was run: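 Phage displaying peptides, pre-blocked 1 h at 37 °C, incubated 1 h at RT on glutaraldehyde-fixed (0.1%, 12 min, 37 °C) cMet-overexpressing 3T3 cells (10^5 per well). Binding read out by HRP anti-M13 antibody after PBST washing.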

cMet-Fc fusion protein = cMet-Fc fusion protein (Homo sapiens, UniProt P08581); assay: Protein phage ELISA: peptide-displaying phage binding to soluble cMet-Fc versus TRAIL-Fc; details: phage isolate; cMet-Fc vs. TRAIL-Fc
How it was run: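 Phage displaying selected peptides were incubated 2 h at room temperature on wells coated with 0.5 μg/mL cMet-Fc, with TRAIL-Fc coating as the unrelated-Fc specificity control.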

T1 sequence (P08581 25-1390): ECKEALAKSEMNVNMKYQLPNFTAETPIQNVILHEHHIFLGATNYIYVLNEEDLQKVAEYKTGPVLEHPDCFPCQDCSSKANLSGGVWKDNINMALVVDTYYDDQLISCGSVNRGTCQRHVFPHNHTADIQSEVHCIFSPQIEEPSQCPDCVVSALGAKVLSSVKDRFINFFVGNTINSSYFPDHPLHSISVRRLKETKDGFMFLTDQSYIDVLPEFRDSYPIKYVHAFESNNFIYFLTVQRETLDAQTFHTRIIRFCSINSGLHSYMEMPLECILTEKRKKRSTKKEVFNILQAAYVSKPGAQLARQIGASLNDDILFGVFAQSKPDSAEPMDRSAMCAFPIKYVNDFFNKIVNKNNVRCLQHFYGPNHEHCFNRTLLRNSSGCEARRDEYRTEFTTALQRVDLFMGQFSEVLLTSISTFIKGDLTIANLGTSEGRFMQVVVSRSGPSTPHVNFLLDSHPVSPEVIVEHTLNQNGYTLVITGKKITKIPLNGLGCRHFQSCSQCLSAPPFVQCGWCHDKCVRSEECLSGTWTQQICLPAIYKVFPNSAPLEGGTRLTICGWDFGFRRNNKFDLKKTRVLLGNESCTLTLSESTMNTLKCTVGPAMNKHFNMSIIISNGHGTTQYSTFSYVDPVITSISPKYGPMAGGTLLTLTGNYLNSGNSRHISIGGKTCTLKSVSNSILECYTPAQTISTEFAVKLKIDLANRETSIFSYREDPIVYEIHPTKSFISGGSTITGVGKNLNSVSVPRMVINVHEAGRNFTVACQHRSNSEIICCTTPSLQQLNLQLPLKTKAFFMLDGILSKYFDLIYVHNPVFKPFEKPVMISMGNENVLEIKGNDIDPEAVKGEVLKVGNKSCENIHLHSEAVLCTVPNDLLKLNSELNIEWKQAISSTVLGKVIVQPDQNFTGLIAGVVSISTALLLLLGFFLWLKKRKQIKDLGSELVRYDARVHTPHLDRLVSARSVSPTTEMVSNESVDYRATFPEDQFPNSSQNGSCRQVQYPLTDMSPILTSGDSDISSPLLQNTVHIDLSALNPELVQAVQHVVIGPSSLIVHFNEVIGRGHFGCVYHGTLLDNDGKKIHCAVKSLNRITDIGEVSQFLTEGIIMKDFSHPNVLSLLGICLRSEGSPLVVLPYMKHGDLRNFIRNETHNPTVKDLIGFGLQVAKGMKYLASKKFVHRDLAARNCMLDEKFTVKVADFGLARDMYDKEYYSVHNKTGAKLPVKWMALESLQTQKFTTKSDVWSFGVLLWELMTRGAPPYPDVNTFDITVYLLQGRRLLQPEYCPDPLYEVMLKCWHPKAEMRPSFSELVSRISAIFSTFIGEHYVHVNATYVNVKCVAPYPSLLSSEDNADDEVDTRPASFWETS
Sequence of cMet-Fc fusion protein (P08581 25-307 limits assumed): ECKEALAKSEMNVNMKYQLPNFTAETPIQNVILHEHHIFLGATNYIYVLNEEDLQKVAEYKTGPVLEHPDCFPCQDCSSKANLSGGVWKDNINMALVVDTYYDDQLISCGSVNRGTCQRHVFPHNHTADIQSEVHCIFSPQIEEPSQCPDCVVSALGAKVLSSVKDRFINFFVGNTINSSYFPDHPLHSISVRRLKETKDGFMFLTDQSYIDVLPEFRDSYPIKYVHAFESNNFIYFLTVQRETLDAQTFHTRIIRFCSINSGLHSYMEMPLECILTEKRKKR
Sequence of cMet-Fc fusion protein (P08581 with tags, fused parts or gaps limits assumed): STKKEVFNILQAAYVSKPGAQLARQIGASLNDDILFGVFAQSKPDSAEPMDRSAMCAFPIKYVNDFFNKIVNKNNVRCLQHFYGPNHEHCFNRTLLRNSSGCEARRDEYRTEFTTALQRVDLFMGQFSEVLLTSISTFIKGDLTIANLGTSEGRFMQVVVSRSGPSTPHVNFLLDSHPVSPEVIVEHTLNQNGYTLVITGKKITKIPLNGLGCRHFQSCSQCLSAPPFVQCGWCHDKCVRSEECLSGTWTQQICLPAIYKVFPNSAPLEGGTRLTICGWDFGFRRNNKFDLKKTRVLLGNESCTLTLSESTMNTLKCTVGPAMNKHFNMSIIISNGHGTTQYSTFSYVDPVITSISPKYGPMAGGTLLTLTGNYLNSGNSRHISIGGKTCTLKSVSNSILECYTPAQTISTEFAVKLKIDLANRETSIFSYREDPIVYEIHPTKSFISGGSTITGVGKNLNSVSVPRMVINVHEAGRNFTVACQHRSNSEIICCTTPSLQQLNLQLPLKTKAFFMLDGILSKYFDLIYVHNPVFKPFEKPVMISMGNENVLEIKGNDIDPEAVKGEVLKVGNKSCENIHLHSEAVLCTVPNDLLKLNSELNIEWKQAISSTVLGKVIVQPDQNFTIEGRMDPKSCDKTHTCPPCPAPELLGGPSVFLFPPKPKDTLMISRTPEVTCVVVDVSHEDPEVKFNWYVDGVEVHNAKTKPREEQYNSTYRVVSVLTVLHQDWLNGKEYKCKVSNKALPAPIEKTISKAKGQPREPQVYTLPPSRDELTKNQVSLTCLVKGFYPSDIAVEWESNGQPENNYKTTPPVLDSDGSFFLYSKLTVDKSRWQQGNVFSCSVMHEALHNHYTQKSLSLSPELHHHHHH

| WC ELISA [1] | Protein ELISA (cMet-Fc fusion protein) | Sequence |
| --- | --- | --- |
| 1.33 fold over background | 8.0 fold over background | AQMYQTPDGVIGKFVDWMFN (Synthetically generated cMet-binding peptide sequence) [SEQ ID NO: 455] |
| 1.37 fold over background | 7.0 fold over background | AQNAVVPPPMLWSIYWDYGREG (Synthetically generated cMet-binding peptide sequence) [SEQ ID NO: 457] |
| 1.23 fold over background | 3.9 fold over background | AQQWMFQIHQSMAWPYEWIDSY (Synthetically generated cMet-binding peptide sequence) [SEQ ID NO: 494] |
| 1.30 fold over background | 5.5 fold over background | AQRDYLFYWNDGSYQPWQVFVG (Synthetically generated cMet-binding peptide sequence) [SEQ ID NO: 493] |
| 1.20 fold over background | 3.1 fold over background | AQSDHDHAHWGVKHWPFRRYQ (Synthetically generated cMet-binding peptide sequence) [SEQ ID NO: 482] |
| 1.17 fold over background | 3.0 fold over background | AQVGESLDDGWTFFSDKWFDFF (Synthetically generated cMet-binding peptide sequence) [SEQ ID NO: 485] |
| 1.23 fold over background | 3.2 fold over background | AQWGAVDNDWYDWEMEQIWMFE (Synthetically generated cMet-binding peptide sequence) [SEQ ID NO: 491] |
| 1.23 fold over background | 3.3 fold over background | AQWNQWDEFMWFLNPPPIGLMW (Synthetically generated cMet-binding peptide sequence) [SEQ ID NO: 480] |
| 1.37 fold over background | 3.0 fold over background | AQWNWDMGFMWTTDSAQVQPSM (Synthetically generated cMet-binding peptide sequence) [SEQ ID NO: 489] |
| 1.30 fold over background | 3.4 fold over background | GDASMCYDGLALRWDQCWPHDP (Synthetically generated cMet-binding peptide sequence) [SEQ ID NO: 404] |
| 1.37 fold over background | 13.4 fold over background | GDASWCDENSPAAWFYCELWDP (Synthetically generated cMet-binding peptide sequence) [SEQ ID NO: 394] |
| 1.30 fold over background | 4.7 fold over background | GDGFLCRWENGWCEFWDP (Synthetically generated cMet-binding peptide sequence) [SEQ ID NO: 047] |
| 1.23 fold over background | 11.1 fold over background | GDHLTCEFRDDGWKEHCWWSDP (Synthetically generated cMet-binding peptide sequence) [SEQ ID NO: 403] |
| 1.17 fold over background | 5.2 fold over background | GDHRKCEISAKTHEVTCYDNDP (Synthetically generated cMet-binding peptide sequence) [SEQ ID NO: 402] |
| 1.40 fold over background | 13.5 fold over background | GDLLGCGYQEKGGEYKCRFNDP (Synthetically generated cMet-binding peptide sequence) [SEQ ID NO: 395] |
| 1.47 fold over background | 23.7 fold over background | GDLLVCKFDDKFWTETCEWADP (Synthetically generated cMet-binding peptide sequence) [SEQ ID NO: 392] |
| 1.30 fold over background | 6.2 fold over background | GDNRFCSWVYNVDDWWCVDNDP (Synthetically generated cMet-binding peptide sequence) [SEQ ID NO: 398] |
| 1.23 fold over background | 4.3 fold over background | GDPDECQLNRETFEVWCPWHDP (Synthetically generated cMet-binding peptide sequence) [SEQ ID NO: 401] |
| 1.30 fold over background | 7.4 fold over background | GDPWWCFEKDSFIPFACWHHDP (Synthetically generated cMet-binding peptide sequence) [SEQ ID NO: 396] |
| 1.20 fold over background | 8.4 fold over background | GDSYNCSWDSKTFEVTCLYADP (Synthetically generated cMet-binding peptide sequence) [SEQ ID NO: 393] |
| 1.30 fold over background | 6.1 fold over background | GDYRMCQISDMWGNYECSSDDP (Synthetically generated cMet-binding peptide sequence) [SEQ ID NO: 400] |

| WC ELISA [1] | Protein ELISA (cMet-Fc fusion protein) | Sequence |
| --- | --- | --- |
| 1.30 fold over background | 7.0 fold over background | GDYYQCQFSKDMYSERCWPYDP (Synthetically generated cMet-binding peptide sequence) [SEQ ID NO: 397] |
| 1.43 fold over background | 3.7 fold over background | GSAGWCYTMNYVDQLCTYMAP (Synthetically generated cMet-binding peptide sequence) [SEQ ID NO: 387] |
| 1.37 fold over background | 3.0 fold over background | GSDMNCTVLAQDQIFCFREAP (Synthetically generated cMet-binding peptide sequence) [SEQ ID NO: 386] |
| 1.20 fold over background | 8.4 fold over background | GSEFECTGWPEFRCYEYAP (Synthetically generated cMet-binding peptide sequence) [SEQ ID NO: 100] |
| 1.27 fold over background | 4.8 fold over background | GSELFCFYHHQGYEGCDVLAP (Synthetically generated cMet-binding peptide sequence) [SEQ ID NO: 385] |
| 1.33 fold over background | 3.2 fold over background | GSEYSCRTSRCIFSAP (Synthetically generated cMet-binding peptide sequence) [SEQ ID NO: 006] |
| 1.30 fold over background | 7.7 fold over background | GSFAPCGWPSFAIDCIAEAP (Synthetically generated cMet-binding peptide sequence) [SEQ ID NO: 367] |
| 1.30 fold over background | 3.4 fold over background | GSFILCWWTFCDTNAP (Synthetically generated cMet-binding peptide sequence) [SEQ ID NO: 007] |
| 1.37 fold over background | 3.0 fold over background | GSFNICPYQWCTLWAP (Synthetically generated cMet-binding peptide sequence) [SEQ ID NO: 010] |
| 1.37 fold over background | 3.1 fold over background | GSFTACNKTSTTRQPCNPYAP (Synthetically generated cMet-binding peptide sequence) [SEQ ID NO: 384] |
| 1.37 fold over background | 3.1 fold over background | GSFWNCTTDLGAMSDCGFFAP (Synthetically generated cMet-binding peptide sequence) [SEQ ID NO: 383] |
| 1.33 fold over background | 4.5 fold over background | GSGDPCSPGPSINGHCSVMAP (Synthetically generated cMet-binding peptide sequence) [SEQ ID NO: 382] |
| 1.43 fold over background | 3.9 fold over background | GSGMGCHQVNISTGDCAEDAP (Synthetically generated cMet-binding peptide sequence) [SEQ ID NO: 381] |
| 1.33 fold over background | 10.4 fold over background | GSHHTCLDGFAGWRCTEVAP (Synthetically generated cMet-binding peptide sequence) [SEQ ID NO: 366] |
| 1.33 fold over background | 3.5 fold over background | GSLIFCPYGECMMYAP (Synthetically generated cMet-binding peptide sequence) [SEQ ID NO: 005] |
| 1.27 fold over background | 3.8 fold over background | GSLIICWWSWCDKQAP (Synthetically generated cMet-binding peptide sequence) [SEQ ID NO: 009] |
| 1.37 fold over background | 4.0 fold over background | GSLYRCLGEASPTPPCAYEAP (Synthetically generated cMet-binding peptide sequence) [SEQ ID NO: 380] |
| 1.43 fold over background | 3.2 fold over background | GSMLGCLFEHQNKYDCYVLAP (Synthetically generated cMet-binding peptide sequence) [SEQ ID NO: 379] |
| 1.27 fold over background | 3.4 fold over background | GSMLMCELWWCRFLAP (Synthetically generated cMet-binding peptide sequence) [SEQ ID NO: 004] |
| 1.40 fold over background | 3.6 fold over background | GSMNMCDTTDEISPTCHPSAP (Synthetically generated cMet-binding peptide sequence) [SEQ ID NO: 378] |
